The values that follow are results of earlier work, collected in paper PMC2682639.

Where only a bound is given, the exact number is not on record here.

The series addresses Hint1 (Homo sapiens) (UniProt P49773).

Hint1, sequence (P49773 2-126): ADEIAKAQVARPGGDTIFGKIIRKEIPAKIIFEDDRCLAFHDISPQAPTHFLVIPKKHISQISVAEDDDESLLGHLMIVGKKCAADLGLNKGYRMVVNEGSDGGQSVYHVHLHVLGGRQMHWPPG

In general, Kd refers to a measure of binding affinity in units of concentration. Regarding Hint1 (from UniProt P49773), the Kd was less than 1 nM.
